Test results reported in article PMC4066111 (Nature, 2014).

B1: Mina53 (MYC-induced nuclear antigen), aa 26-465, wild type (enzyme)
chain: AAGGPSALNFDSPSSLFESLISPIKTETFFKEFWEQKPLLIQRDDPALATYYGSLFKLTDLKSLCSRGMYYGRDVNVCRCVNGKKKVLNKDGKAHFLQLRKDFDQKRATIQFHQPQRFKDELWRIQEKLECYFGSLVGSNVYITPAGSQGLPPHYDDVEVFILQLEGEKHWRLYHPTVPLAREYSVEAEERIGRPVHEFMLKPGDLLYFPRGTIHQADTPAGLAHSTHVTISTYQNNSWGDFLLDTISGLVFDTAKEDVELRTGIPRQLLLQVESTTVATRRLSGFLRTLADRLEGTKELLSSDMKKDFIMHRLPPYSAGDGAELSTPGGKLPRLDSVVRLQFKDHIVLTVLPDQDQSDEAQEKMVYIYHSLKNSRETHMMGNEEETEFHGLRFPLSHLDALKQIWNSPAISVKDLKLTTDEEKESLVLSLWTECLIQVV
B2: NO66 (Nucleolar protein 66), aa 183-641, wild type (enzyme)
chain: SPLRRVLAELNRIPSSRRRAARLFEWLIAPMPPDHFYRRLWEREAVLVRRQDHTYYQGLFSTADLDSMLRNEEVQFGQHLDAARYINGRRETLNPPGRALPAAAWSLYQAGCSLRLLCPQAFSTTVWQFLAVLQEQFGSMAGSNVYLTPPNSQGFAPHYDDIEAFVLQLEGRKLWRVYRPRVPTEELALTSSPNFSQDDLGEPVLQTVLEPGDLLYFPRGFIHQAECQDGVHSLHLTLSTYQRNTWGDFLEAILPLAVQAAMEENVEFRRGLPRDFMDYMGAQHSDSKDPRRTAFMEKVRVLVARLGHFAPVDAVADQRAKDFIHDSLPPVLTDRERALSVYGLPIRWEAGEPVNVGAQLTTETEVHMLQDGIARLVGEGGHLFLYYTVENSRVYHLEEPKCLEIYPQQADAMELLLGSYPEFVRVGDLPCDSVEDQLSLATTLYDKGLLLTKMPLALN
B3: ycfD from Escherichia coli, full length, wild type (enzyme)
chain: MEYQLTLNWPDFLERHWQKRPVVLKRGFNNFIDPISPDELAGLAMESEVDSRLVSHQDGKWQVSHGPFESYDHLGETNWSLLVQAVNHWHEPTAALMRPFRELPDWRIDDLMISFSVPGGGVGPHLDQYDVFIIQGTGRRRWRVGEKLQMKQHCPHPDLLQVDPFEAIIDEELEPGDILYIPPGFPHEGYALENAMNYSVGFRAPNTRELISGFADYVLQRELGGNYYSDPDVPPRAHPADVLPQEMDKLREMMLELINQPEHFKQWFGEFISQSRHELDIAPPEPPYQPDEIYDALKQGEVLVRLGGLRVLRIGDDVYANGEKIDSPHRPALDALASNIALTAENFGDALEDPSFLAMLAALVNSGYWFFEG

Columns and labels:
[1] = molecular target: the molecule itself; experiment: crystal structure
[2] = molecular target: L299C/C300S NO66 (aa 183-641) (human, UniProt Q9H6W3 183-641, L299C | C300S); experiment: cross-linking
[3] = molecular target: B2; experiment: cross-linking
[4] = molecular target: Y209C Mina53 (aa 26-465) (human, UniProt Q8IUF8 26-465, Y209C); experiment: cross-linking

Binder | binding result [1] | also measured
B1 | binds | –
B2 | binds | –
NPVEHPFGGGNHQHICKPST [rpL8 (205-224) G220C peptide] | – | binding result [2]: binds; binding result [3]: binds
B3 | binds | –
RGNAGCLHHHRINFDKYHP [rpL27a (32-50) G37C peptide] | – | binding result [4]: binds
